Numbering of substitutions follows the chain as printed. Names and notes keep the numbering of the source. Values joined by “and” are separate entries in the source; they are usually repeats but may differ in a detail not shown here. Equal values may be shown once. Read-outs that look alike come from different tables or passages of the source. Values belong to the binder of their own block, whether it stands above or below them.
Tests used:
[1] = biological target: T1, human BR3 extracellular domain (human, UniProt Q96RJ3 1-61); test: single spot phage competition ELISA; OD with competitor / OD without competitor; criterion met by the picked clones
T1 construct: biotinylated where used as tracer; also called hBR3-ECD; BR3-ECD

[2] = biological target: T2, mouse BR3 extracellular domain (mouse, UniProt Q9D8D0 1-64); test: as above
T2 construct: also called mBR3-ECD; mBR-ECD
T2 sequence: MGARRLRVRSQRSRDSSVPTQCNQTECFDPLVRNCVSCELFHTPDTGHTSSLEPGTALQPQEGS

[3] = biological target: T1, human BR3 extracellular domain; test: phage competition ELISA
[4] = biological target: T2, mouse BR3 extracellular domain; test: phage competition ELISA
[5] = biological target: T1, human BR3 extracellular domain; test: SPR BIAcore-2000, ECD on chip, Fab injected
Source text: (§1) Biacore measurement Surface plasmon resonance assays on a BIAcore™-2000 were used to determine the affinity of anti-BR3 Fabs. […] For kinetics analysis, 1:1 Languir model of simultaneous fitting of kₒₙ and koff was used.

[6] = biological target: T2, mouse BR3 extracellular domain; test: SPR BIAcore-2000, ECD on chip, Fab injected
Source text: as §1

MiniBR3 peptide = biological target: T3, MiniBR3 peptide (human, C-terminal amide; disulfide between cysteines 24 and 35 and a second disulfide (BR3 numbering)); test: phage competition ELISA
T3 construct: synthetic
T3 sequence (peptide, as listed by the source): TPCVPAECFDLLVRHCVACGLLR

[7] = biological target: T2, mouse BR3 extracellular domain; test: SPR BIAcore-2000, mBR3-ECD on chip, Fab injected
Source text: as §1

[8] = biological target: T1, human BR3 extracellular domain; test: SPR BIAcore-2000, hBR3-ECD on chip, Fab injected
Source text: as §1

[9] = biological target: T4, variant human BR3-Fc fusion; test: SPR, vBR3-Fc on chip;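 further: Anti-BR3 antibodies passed over chip-bound BR3-Fc in PBS with 0.05% polysorbate 20, on and off rates fitted together globally to a 1:1 binding model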
T4 construct: produced in CHO cells; also called vBR3-Fc; vhBR3-Fc
Procedure: After coupling, unoccupied sites on the chip were blocked by injecting 20 μl of 1M ethanolamine, pH 8.5. The running buffer was PBS containing 0.05% polysorbate 20. […] The binding surface was regenerated by injecting 20-30 μl of 10 mM glycine.HCl (pH 1.5). […] Data were analyzed using a 1:1 binding model using global fitting. The association and dissociation rate constants were fitted simultaneously (BIAevaluation software).
A high flow rate was used in order to minimize mass transport effects.

[10] = biological target: T1, human BR3 extracellular domain; test: SPR, BR3 ECD on chip;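 further: Anti-BR3 antibodies passed over the chip at high flow in PBS with 0.05% polysorbate 20, on and off rates fitted together globally to a 1:1 binding model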
[11] = biological target: T1, human BR3 extracellular domain; test: BIAcore, Fab over immobilised target
Procedure: (§2) Each sample was analysed with 2-minute association and 20-minute dissociation. After each injection the chip was regenerated using 10 mM Glycine pH 1.5. Binding response was corrected by subtracting the RU from a blank flow cell. A 1:1 Languir model of simultaneous fitting of kₒₙ and koff was used for kinetics analysis.

[12] = biological target: T4, variant human BR3-Fc fusion; test: BIAcore, Fab over immobilised target
Procedure: as §2

mouse BR3-Fc [13] = biological target: T5, mouse BR3-Fc (mouse); test: F(ab)'2 phage solution binding competition ELISA
T5 construct: (BR3 ECD fused to a murine Fc); also called mBR3-Fc; murine BR3-Fc
T5 chain: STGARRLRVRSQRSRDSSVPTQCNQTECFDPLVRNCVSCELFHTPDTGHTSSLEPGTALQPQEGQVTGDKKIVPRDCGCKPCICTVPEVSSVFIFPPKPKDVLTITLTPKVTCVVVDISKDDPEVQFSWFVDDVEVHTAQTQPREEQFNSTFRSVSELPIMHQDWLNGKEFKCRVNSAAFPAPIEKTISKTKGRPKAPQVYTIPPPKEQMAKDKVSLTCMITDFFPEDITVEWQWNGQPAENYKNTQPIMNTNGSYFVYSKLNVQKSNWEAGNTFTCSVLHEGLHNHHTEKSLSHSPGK
Procedure: (§3) Third, a competition ELISA was performed. […] The wells were blocked by adding 65 ul 1% BSA for 30 minutes followed by 40 ul 1% Tween20 for another 30 minutes. The wells were washed with PBS—0.05% Tween20 5 times. […] The wells of the second plate were washed with PBS—0.5% Tween20 at least three times. 75 ul of HRP-conjugated anti-M13 antibody (1/5000 dilution with ELISA buffer) per well was added and incubated at room temperature for 30 minutes. The wells were washed again with PBS—0.05% Tween20 at least five times.

[14] = biological target: T1, human BR3 extracellular domain; test: F(ab)'2 phage solution binding competition ELISA
Procedure: as §3

[15] = biological target: T2, mouse BR3 extracellular domain; test: F(ab)'2 phage solution binding competition ELISA
Procedure: as §3

mouse BR3-Fc [16] = biological target: T5, mouse BR3-Fc; test: BAFF blocking ELISA: F(ab)'2 phage added to coated mBR3-Fc after mBAFF-Flag
Procedure: The wells were blocked by adding 65 ul 1% BSA for 30 minutes followed by 40 ul 1% Tween20 for another 30 minutes. Next, the wells were washed five times with PBS—0.05% Tween20. […] The wells were washed five times with PBS—0.05% Tween20.
Binding was quantified by adding 75 ul/well of horse radish peroxidase (HRP)-conjugated anti-M13 antibody in PBS plus 0.5% BSA and 0.05% Tween20 at room temperature for 30 minutes (Sidhu et al., supra). The wells were washed with PBS—0.05% Tween20 at least five times.

[17] = biological target: T1, human BR3 extracellular domain; test: SPR BIAcore-3000, Fab
Source text: (§4) Surface plasmon resonance assays on a BIAcore™-3000 were used to determine the affinity of the Fabs.

[18] = biological target: T2, mouse BR3 extracellular domain; test: SPR BIAcore-3000, Fab
Source text: as §4

B1: V3-1 Fab (Fab, V domains shown)
VH: EVQLVESGGGLVQPGGSLRLSCAASGFTISSNSIHWVRQAPGKGLEWVAWITPSDGNTDYADSVKGRFTISADTSKNTAYLQMNSLRAEDTAVYYCARRVCYNRLGVCAGGMDYWGQGTLVTVSS
VL: DIQMTQSPSSLSASVGDRVTITCRASQDVSTAVAWYQQKPGKAPKLLIYSASFLYSGVPSRFSGSGSGTDFTLTISSLQPEDFATYYCQQSRITPPTFGQGTKVEIKR
notes: soluble Fab in SPR
- OD450nm reduction (%) [1]: < 50%
- OD450nm reduction (%) [2]: < 50%
- IC50 [3]: 9.4 nM
- IC50 [4]: 9.5 nM
- Kd [5]: 7.9 nM
- koff [5]: 0.000293 s⁻¹
- kon [5]: 37300 M⁻¹ s⁻¹
- Kd [6]: 2.5 nM
- koff [6]: 0.000195 s⁻¹
- kon [6]: 77100 M⁻¹ s⁻¹
- IC50 (MiniBR3 peptide): 5.4 nM
- Kd [7]: 2.5 nM
- koff [7]: 0.000195 s⁻¹
- kon [7]: 77100 M⁻¹ s⁻¹
- Kd [8]: 7.87 nM
- koff [8]: 0.000293 s⁻¹
- kon [8]: 37300 M⁻¹ s⁻¹

B2: V3-11 Fab (Fab, V domains shown)
VH: B1 VH with R104N, G111A
VL: B1 VL with S91T, R92S, I93T, T94S
notes: soluble Fab in SPR
- OD450nm reduction (%) [1]: < 50%
- OD450nm reduction (%) [2]: < 50%
- Kd [5]: 60.1 nM
- koff [5]: 0.00113 s⁻¹
- kon [5]: 21800 M⁻¹ s⁻¹
- Kd [6]: 20.4 nM
- koff [6]: 0.000888 s⁻¹
- kon [6]: 43600 M⁻¹ s⁻¹
- IC50 (MiniBR3 peptide): 11 nM

B3: V3-12 Fab (Fab, V domains shown)
VH: B1 VH with N103D, L105A, G106R, G111A
VL: B1 VL with R92Y, I93S
notes: soluble Fab in SPR
- OD450nm reduction (%) [1]: < 50%
- OD450nm reduction (%) [2]: < 50%
- Kd [5]: 72 nM
- koff [5]: 0.00091 s⁻¹
- kon [5]: 13000 M⁻¹ s⁻¹
- Kd [6]: 36 nM
- koff [6]: 0.0013 s⁻¹
- kon [6]: 36000 M⁻¹ s⁻¹
- IC50 (MiniBR3 peptide): 35 nM

B7: 24 (Fab, V domains shown)
VH: EVQLVESGGGLVQPGGSLRLSCAASGFTISGSSIHWVRQAPGKGLEWVGTIYPYGGNTYYADSVKGRFTISADTSKNTAYLQMNSLRAEDTAVYYCARRAFVMSGMDYWGQGTLVTVSS
VL: B1 VL with R92Y, I93T
notes: also called V24; clone 24
- IC50 (mouse BR3-Fc [13]): 133 nM
- binding result [14]: binds
- binding result [15]: no binding
- Blocking to % (phage bound in the presence of BAFF) (mouse BR3-Fc [16]): 90%

B11: 75 (Fab, V domains shown)
VH: EVQLVESGGGLVQPGGSLRLSCAASGFTINGSWIHWVRQAPGKGLEWVAWITPSNGSTDYADSVKGRFTISADTSKNTAYLQMNSLRAEDTAVYYCARLSRRPWLWGMDYWGQGTLVTVSS
VL: B1 VL with R92Y, I93T
notes: also called V75; clone 75
- IC50 (mouse BR3-Fc [13]): > 10000 nM
- binding result [14]: binds
- binding result [15]: no binding

B13: V3-13 Fab (Fab, V domains shown)
VH: B1 VH with S31R, N32R, N103S, R104S, L105V, G106R, V107G, G111A
VL: B1 VL with S50G, F53N, R92H, I93A, T94S
notes: soluble Fab in SPR
- OD450nm reduction (%) [1]: < 50%
- OD450nm reduction (%) [2]: < 50%
- Kd [5]: 1200 nM
- koff [5]: 0.0028 s⁻¹
- kon [5]: 2300 M⁻¹ s⁻¹
- Kd [6]: 40 nM
- IC50 (MiniBR3 peptide): 473 nM

B14: V3-46s Fab (Fab, V domains shown)
VH: B1 VH with N32S, I51V, T52L, D55V, N57F
VL: B1 VL with R92Q, T94S
notes: N31S mutant of V3-46; also called V46s; N31S
- Kd [17]: 0.6 nM
- koff [17]: 8.6e-05 s⁻¹
- kon [17]: 140000 M⁻¹ s⁻¹
- Kd [18]: 1 nM
- koff [18]: 0.00027 s⁻¹
- kon [18]: 270000 M⁻¹ s⁻¹
- Kd [7]: 1 nM
- koff [7]: 0.00027 s⁻¹
- kon [7]: 270000 M⁻¹ s⁻¹
- Kd [8]: 0.6 nM
- koff [8]: 8.6e-05 s⁻¹
- kon [8]: 140000 M⁻¹ s⁻¹

More lines, now with the values ahead:

- Kd ([9]; 140 RU BR3-Fc immobilized): 1.12 nM
- koff ([9]; 140 RU BR3-Fc immobilized): 0.00148 s⁻¹
- kon ([9]; 140 RU BR3-Fc immobilized): 1.32e+06 M⁻¹ s⁻¹
- Kd ([9]; 220 RU BR3-Fc immobilized): 0.92 nM
- koff ([9]; 220 RU BR3-Fc immobilized): 0.00145 s⁻¹
- kon ([9]; 220 RU BR3-Fc immobilized): 1.58e+06 M⁻¹ s⁻¹
- Kd [10]: 0.12 nM and 0.11 nM
- koff [10]: 0.000271 s⁻¹ and 0.000294 s⁻¹
- kon [10]: 2.25e+06 M⁻¹ s⁻¹ and 2.65e+06 M⁻¹ s⁻¹
- Kd [11]: 0.115 nM
B4: chimeric 2.1 Fab (Fab, V domains shown)
VH: EVQLQESGPSLVKPSQTLSLTCSVTGDSITRGYWNWIRKFPGNKLEFMGYINYSGTTYYNPSLKSRISITRDTSKNQYYLQLNSVTTEDTATYYCATPHTYGAMDYWGQGTTLTVSA
VL: DIVLTQSPVSLAVSLGQRATISCRASESVDDYGISFMHWYQQKPGQPPKLLIYRASDLESGIPARFSGSGSGTDFTLTINPVETDDVAIYYCQQTSKDPWTFGGGT
notes: Fab with murine variable domains; also called Ch 2.1 Fab

- Kd [9]: 0.43 nM and 0.48 nM
- koff [9]: 0.000215 s⁻¹ and 0.000225 s⁻¹
- kon [9]: 500000 M⁻¹ s⁻¹ and 470000 M⁻¹ s⁻¹
- Kd [10]: 0.31 nM and 0.32 nM
- koff [10]: 0.000174 s⁻¹ and 0.000175 s⁻¹
- kon [10]: 560000 M⁻¹ s⁻¹ and 550000 M⁻¹ s⁻¹
- Kd [12]: 0.45 nM
B5: Hu9.1-73 Fab (Fab, V domains shown)
VH: EVQLVESGGGLVQPGGSLRLSCAASGLPMAGFYTSWVRQAPGKGLEWVGFIRDKANGYTTEYNPSVKGRFTISADTSKNTAYLQMNSLRAEDTAVYYCAQVRRALDYWGQGTLVTVSS
VL: DIQMTQSPSSLSASVGDRVTITCKSSQSLLYSSNQNNYLAWYQQKPGKAPKLLIYWAQHLDSGVPSRFSGSGSGTDFTLTISSLQPEDFATYYCQQYYTYPYTFGQGTKVEIKR
notes: Fab expressed in E. coli

- Kd [9]: 1.37 nM
- koff [9]: 0.000742 s⁻¹
- kon [9]: 541000 M⁻¹ s⁻¹
- Kd [10]: 0.736 nM
- koff [10]: 0.00101 s⁻¹
- kon [10]: 1.37e+06 M⁻¹ s⁻¹
- Kd [12]: 11 nM
- Kd [11]: 6.3 nM
B6: Hu9.1-88 Fab (Fab, V domains shown)
VH: B5 VH with L27F, M29V, A30T, F32S, T34V, A74R, A81L
VL: B5 VL with Q58S, H59T, L60R, D61E
notes: Fab

- binding result [14]: no binding
- IC50 [15]: 1500 nM
B8: 44 (Fab, V domains shown)
VH: EVQLVESGGGLVQPGGSLRLSCAASGFTITGSYIHWVRQAPGKGLEWVAWIYPDGGYTDYADSVKGRFTISADTSKNTAYLQMNSLRAEDTAVYYCASKPAGPFGYWGQGTLVTVSS
VL: B1 VL with R92Y, I93T
notes: also called V44; clone 44

- binding result [14]: binds
- binding result [15]: no binding
B9: 51 (Fab, V domains shown)
VH: EVQLVESGGGLVQPGGSLRLSCAASGFTISSTGIHWVRQAPGKGLEWVGGISPSSGSTNYADSVKGRFTISADTSKNTAYLQMNSLRAEDTAVYYCARRKVVSSHVTNKYVMDYWGQGTLVTVSS
VL: B1 VL with R92Y, I93T
notes: also called V51; clone 51

- binding result (mouse BR3-Fc [13]): binds
- binding result [14]: binds
B10: 46 (Fab, V domains shown)
VH: EVQLVESGGGLVQPGGSLRLSCAASGFTITGSYIHWVRQAPGKGLEWVAWIYPDGGYTDYADSVKGRFTISADTSKNTAYLQMNSLRAEDTAVYYCASKPAGFGYWGQGTLVTVSS
VL: B1 VL with R92Y, I93T
notes: also called V46; clone 46 of the naive library (not V3-46)

- Kd [10]: 19.5 nM and 23.5 nM
- koff [10]: 0.0233 s⁻¹ and 0.0263 s⁻¹
- kon [10]: 1.2e+06 M⁻¹ s⁻¹ and 1.12e+06 M⁻¹ s⁻¹
- Kd [12]: > 100 nM
- Kd [11]: 21.5 nM
B12: chimeric 11G9 Fab (Fab, V domains shown)
VH: DVQLQESGPSLVKPSQTLSLTCSVTGDSITSGYWNWIRKFPGNKLEYMGYISYSGSTYYNPSLKSRISITRDTSKNQFYLQLLSVTTEDTATYYCAGLDGLYWYFDVWGAGTLVTVSS
VL: DIVMTQTPLSLPVSLGDQASISCRSSQSLVHSNGNTYLHWYLQKPGQSPKLLIYKVSNRFSGVPDRFSGSGSGTDFTLKISRVEAEDLGVYFCSQSTHVPPFTFGSGT
notes: Fab with murine variable domains; also called Ch 11G9 Fab

From patent publication US20100280227A1 (Genentech, published 2010)
